Numbered stars: 1 amine (or outer) side, 2 acyl side, 3 side chain; on linkers, the order of the positions; unused ones are H or OH. Square brackets hold non-standard residues; d marks the D form. Side chains are listed from the residue outwards. Ends that are not written are not given here. * marks the point of attachment. C20 diacid = O=C(O)CCCCCCCCCCCCCCCCCCC(=O)*; γGlu = O=C(O)[C@H](CCC(=O)[*:2])N[*:1]; αMeP = C[C@@]1(C(=O)O)CCCN1; AEEA = NCCOCCOCC(=O)O
B1: Example 191 (peptide)
peptide: YXEGTXTSDVSIXLDEKAQXEFIXYLIEGGPSSGAPPPS
modifications: Y-Aib-EGT-αMeF(2F)-TSDVSI-αMeF-LDEK((2-[2-(2-Amino-ethoxy)-ethoxy]-acetyl)2-(γ-Glu)-CO-(CH2)18-CO2H)AQ-Aib-EFI-(D-Glu)-YLIEGGPSSGAPPPS-NH2
B2: Example 192 (peptide)
peptide: YXEGTXTSDASIXLDEKAQXEFIXYLIEGGPSSGAPPPS
modifications: Y-Aib-EGT-αMeF(2F)-TSDASI-αMeF-LDEK((2-[2-(2-Amino-ethoxy)-ethoxy]-acetyl)2-(γ-Glu)-CO-(CH2)18-CO2H)AQ-Aib-EFI-(D-Glu)-YLIEGGPSSGAPPPS-NH2
B3: Example 193 (peptide)
peptide: Y[αMeP]EGTFTSDYSILLDEK([AEEA-AEEA-γGlu-C20 diacid])AQQAFIEYLIEGGPSSGAPPPS-NH2
modifications: N-terminus assumed
SMILES: CC[C@H](C)[C@H](NC(=O)[C@H](CC(C)C)NC(=O)[C@H](Cc1ccc(O)cc1)NC(=O)[C@H](CCC(=O)O)NC(=O)[C@@H](NC(=O)[C@H](Cc1ccccc1)NC(=O)[C@H](C)NC(=O)[C@H](CCC(N)=O)NC(=O)[C@H](CCC(N)=O)NC(=O)[C@H](C)NC(=O)[C@H](CCCCNC(=O)COCCOCCNC(=O)COCCOCCNC(=O)CC[C@H](NC(=O)CCCCCCCCCCCCCCCCCCC(=O)O)C(=O)O)NC(=O)[C@H](CCC(=O)O)NC(=O)[C@H](CC(=O)O)NC(=O)[C@H](CC(C)C)NC(=O)[C@H](CC(C)C)NC(=O)[C@@H](NC(=O)[C@H](CO)NC(=O)[C@H](Cc1ccc(O)cc1)NC(=O)[C@H](CC(=O)O)NC(=O)[C@H](CO)NC(=O)[C@@H](NC(=O)[C@H](Cc1ccccc1)NC(=O)[C@@H](NC(=O)CNC(=O)[C@H](CCC(=O)O)NC(=O)[C@]1(C)CCCN1C(=O)[C@@H](N)Cc1ccc(O)cc1)[C@@H](C)O)[C@@H](C)O)[C@@H](C)CC)[C@@H](C)CC)C(=O)N[C@@H](CCC(=O)O)C(=O)NCC(=O)NCC(=O)N1CCC[C@H]1C(=O)N[C@@H](CO)C(=O)N[C@@H](CO)C(=O)NCC(=O)N[C@@H](C)C(=O)N1CCC[C@H]1C(=O)N1CCC[C@H]1C(=O)N1CCC[C@H]1C(=O)N[C@@H](CO)C(N)=O
B4: Example 194 (peptide)
peptide: Y[αMeP]EGTFTSDYSILLDEK([AEEA-AEEA-γGlu-C20 diacid])AQHAFIEYLIEGGPSSGAPPPS-NH2
modifications: N-terminus assumed
SMILES: CC[C@H](C)[C@H](NC(=O)[C@H](CC(C)C)NC(=O)[C@H](Cc1ccc(O)cc1)NC(=O)[C@H](CCC(=O)O)NC(=O)[C@@H](NC(=O)[C@H](Cc1ccccc1)NC(=O)[C@H](C)NC(=O)[C@H](Cc1c[nH]cn1)NC(=O)[C@H](CCC(N)=O)NC(=O)[C@H](C)NC(=O)[C@H](CCCCNC(=O)COCCOCCNC(=O)COCCOCCNC(=O)CC[C@H](NC(=O)CCCCCCCCCCCCCCCCCCC(=O)O)C(=O)O)NC(=O)[C@H](CCC(=O)O)NC(=O)[C@H](CC(=O)O)NC(=O)[C@H](CC(C)C)NC(=O)[C@H](CC(C)C)NC(=O)[C@@H](NC(=O)[C@H](CO)NC(=O)[C@H](Cc1ccc(O)cc1)NC(=O)[C@H](CC(=O)O)NC(=O)[C@H](CO)NC(=O)[C@@H](NC(=O)[C@H](Cc1ccccc1)NC(=O)[C@@H](NC(=O)CNC(=O)[C@H](CCC(=O)O)NC(=O)[C@]1(C)CCCN1C(=O)[C@@H](N)Cc1ccc(O)cc1)[C@@H](C)O)[C@@H](C)O)[C@@H](C)CC)[C@@H](C)CC)C(=O)N[C@@H](CCC(=O)O)C(=O)NCC(=O)NCC(=O)N1CCC[C@H]1C(=O)N[C@@H](CO)C(=O)N[C@@H](CO)C(=O)NCC(=O)N[C@@H](C)C(=O)N1CCC[C@H]1C(=O)N1CCC[C@H]1C(=O)N1CCC[C@H]1C(=O)N[C@@H](CO)C(N)=O
B5: Example 195 (peptide)
peptide: Y[αMeP]EGTFTSDYSILLDRK([AEEA-AEEA-γGlu-C20 diacid])AQQAFIEYLIEGGPSSGAPPPS-NH2
modifications: N-terminus assumed
SMILES: CC[C@H](C)[C@H](NC(=O)[C@H](CC(C)C)NC(=O)[C@H](Cc1ccc(O)cc1)NC(=O)[C@H](CCC(=O)O)NC(=O)[C@@H](NC(=O)[C@H](Cc1ccccc1)NC(=O)[C@H](C)NC(=O)[C@H](CCC(N)=O)NC(=O)[C@H](CCC(N)=O)NC(=O)[C@H](C)NC(=O)[C@H](CCCCNC(=O)COCCOCCNC(=O)COCCOCCNC(=O)CC[C@H](NC(=O)CCCCCCCCCCCCCCCCCCC(=O)O)C(=O)O)NC(=O)[C@H](CCCNC(=N)N)NC(=O)[C@H](CC(=O)O)NC(=O)[C@H](CC(C)C)NC(=O)[C@H](CC(C)C)NC(=O)[C@@H](NC(=O)[C@H](CO)NC(=O)[C@H](Cc1ccc(O)cc1)NC(=O)[C@H](CC(=O)O)NC(=O)[C@H](CO)NC(=O)[C@@H](NC(=O)[C@H](Cc1ccccc1)NC(=O)[C@@H](NC(=O)CNC(=O)[C@H](CCC(=O)O)NC(=O)[C@]1(C)CCCN1C(=O)[C@@H](N)Cc1ccc(O)cc1)[C@@H](C)O)[C@@H](C)O)[C@@H](C)CC)[C@@H](C)CC)C(=O)N[C@@H](CCC(=O)O)C(=O)NCC(=O)NCC(=O)N1CCC[C@H]1C(=O)N[C@@H](CO)C(=O)N[C@@H](CO)C(=O)NCC(=O)N[C@@H](C)C(=O)N1CCC[C@H]1C(=O)N1CCC[C@H]1C(=O)N1CCC[C@H]1C(=O)N[C@@H](CO)C(N)=O
B6: Example 196 (peptide)
peptide: Y[αMeP]EGTFTSDYSILLDRK([AEEA-AEEA-γGlu-C20 diacid])AQHAFIEYLIEGGPSSGAPPPS-NH2
modifications: N-terminus assumed
SMILES: CC[C@H](C)[C@H](NC(=O)[C@H](CC(C)C)NC(=O)[C@H](Cc1ccc(O)cc1)NC(=O)[C@H](CCC(=O)O)NC(=O)[C@@H](NC(=O)[C@H](Cc1ccccc1)NC(=O)[C@H](C)NC(=O)[C@H](Cc1c[nH]cn1)NC(=O)[C@H](CCC(N)=O)NC(=O)[C@H](C)NC(=O)[C@H](CCCCNC(=O)COCCOCCNC(=O)COCCOCCNC(=O)CC[C@H](NC(=O)CCCCCCCCCCCCCCCCCCC(=O)O)C(=O)O)NC(=O)[C@H](CCCNC(=N)N)NC(=O)[C@H](CC(=O)O)NC(=O)[C@H](CC(C)C)NC(=O)[C@H](CC(C)C)NC(=O)[C@@H](NC(=O)[C@H](CO)NC(=O)[C@H](Cc1ccc(O)cc1)NC(=O)[C@H](CC(=O)O)NC(=O)[C@H](CO)NC(=O)[C@@H](NC(=O)[C@H](Cc1ccccc1)NC(=O)[C@@H](NC(=O)CNC(=O)[C@H](CCC(=O)O)NC(=O)[C@]1(C)CCCN1C(=O)[C@@H](N)Cc1ccc(O)cc1)[C@@H](C)O)[C@@H](C)O)[C@@H](C)CC)[C@@H](C)CC)C(=O)N[C@@H](CCC(=O)O)C(=O)NCC(=O)NCC(=O)N1CCC[C@H]1C(=O)N[C@@H](CO)C(=O)N[C@@H](CO)C(=O)NCC(=O)N[C@@H](C)C(=O)N1CCC[C@H]1C(=O)N1CCC[C@H]1C(=O)N1CCC[C@H]1C(=O)N[C@@H](CO)C(N)=O

Legend:
[1] = target: T1, human gastric inhibitory peptide receptor (GIPR) (human, UniProt P48546 22-466); test: cell-based or functional assay
T1 sequence (looked up): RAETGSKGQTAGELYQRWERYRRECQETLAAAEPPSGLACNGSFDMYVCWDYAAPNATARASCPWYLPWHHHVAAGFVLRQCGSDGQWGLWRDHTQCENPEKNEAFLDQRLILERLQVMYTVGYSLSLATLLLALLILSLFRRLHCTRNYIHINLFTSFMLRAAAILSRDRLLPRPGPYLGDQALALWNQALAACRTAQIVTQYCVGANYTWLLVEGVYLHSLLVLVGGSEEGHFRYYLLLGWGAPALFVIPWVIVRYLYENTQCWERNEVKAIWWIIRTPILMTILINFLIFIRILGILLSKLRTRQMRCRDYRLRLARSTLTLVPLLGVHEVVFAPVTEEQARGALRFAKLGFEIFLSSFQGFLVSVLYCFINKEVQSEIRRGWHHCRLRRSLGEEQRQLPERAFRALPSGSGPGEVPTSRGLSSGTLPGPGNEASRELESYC

[2] = target: human GLP-1 receptor (GLP-1R) (human, UniProt P43220 24-463); test: cell-based or functional assay

Binder	hGIPR cAMP EC50 ratio [1]	hGIPR cAMP Rel EC50 [1]	hGLP1R cAMP EC50 ratio [2]	hGLP1R cAMP Rel EC50 [2]
B1	2.53	0.0645 nM	1.6	0.0356 nM
B2	2.83	0.0615 nM	1.73	0.0289 nM
B3	0.538	0.336 nM	0.359	0.162 nM
B4	0.427	0.423 nM	0.205	0.284 nM
B5	0.936	0.193 nM	0.602	0.0966 nM
B6	0.653	0.277 nM	0.332	0.175 nM

— patent publication US20220048967A1 (published 2022)
